Test results as given in patent publication US20250000946A1 (WUXI BIOLOGICS IRELAND, published 2025).
Residue numbers refer to the chain shown, from its start. In names and notes the source's numbering stands. Each block holds one binder with its values, some of them ahead of it.

Tests used:
[1] = molecular target: T1, Human IL-2Rβ/γ (intermediate affinity IL-2 receptor) (human, UniProt P14784 27-551; P31785 23-369); test: FACS, HH cells
T1 construct: whole, on cells; also called IL-2Rβ/γc; IL-2Rβ (CD122) and γ (CD132)
T1 sequence (looked up) 1: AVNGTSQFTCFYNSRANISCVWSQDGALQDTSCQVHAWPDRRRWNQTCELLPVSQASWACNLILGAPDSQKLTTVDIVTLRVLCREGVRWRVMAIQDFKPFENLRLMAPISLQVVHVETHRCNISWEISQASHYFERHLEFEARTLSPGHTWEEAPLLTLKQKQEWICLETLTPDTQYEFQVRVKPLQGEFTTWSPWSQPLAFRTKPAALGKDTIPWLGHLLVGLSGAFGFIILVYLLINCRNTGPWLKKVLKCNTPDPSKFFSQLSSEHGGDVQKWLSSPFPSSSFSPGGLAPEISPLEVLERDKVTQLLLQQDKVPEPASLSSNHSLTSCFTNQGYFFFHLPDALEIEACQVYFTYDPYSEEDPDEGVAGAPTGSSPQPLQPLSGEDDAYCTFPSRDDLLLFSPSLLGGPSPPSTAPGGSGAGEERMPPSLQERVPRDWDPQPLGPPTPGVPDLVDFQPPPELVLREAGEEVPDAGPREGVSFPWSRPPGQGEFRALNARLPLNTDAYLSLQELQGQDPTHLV
T1 sequence (looked up) 2: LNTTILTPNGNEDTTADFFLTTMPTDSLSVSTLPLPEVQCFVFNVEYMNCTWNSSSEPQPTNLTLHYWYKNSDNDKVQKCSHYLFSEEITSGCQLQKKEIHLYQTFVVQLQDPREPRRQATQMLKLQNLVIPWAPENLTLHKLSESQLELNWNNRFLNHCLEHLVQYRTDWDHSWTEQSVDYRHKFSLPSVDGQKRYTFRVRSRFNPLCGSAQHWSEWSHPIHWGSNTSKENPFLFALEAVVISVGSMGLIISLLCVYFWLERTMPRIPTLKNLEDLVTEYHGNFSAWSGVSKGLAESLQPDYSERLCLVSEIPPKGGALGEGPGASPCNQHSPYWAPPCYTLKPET
Procedure: (§1) Human cutaneous T cell lymphoma HH cells, malignant non-Hodgkin's lymphoma NK92 cells and cutaneous T cell lymphoma MJ20 cells were used for binding assay. They both constitutively express IL-2Rβ (CD122) and […] (CD132), and NK92 and MJ20 also expresses IL-2Rα (CD25). HH, NK92 and MJ20 cells were cultured following ATCC guidance, then transferred to a 96-plate for binding analysis. Cells were incubated with IL-2/Fc fusion proteins at the indicated concentrations for 30 min at 4° C. to avoid internalization. Binding was detected by 2nd antibody of PE-anti-human Fc at 4° C. for another 30 min. The median fluorescence intensity (MFI) on HH and NK92 cells was measured using FACS.

[2] = molecular target: T1, Human IL-2Rβ/γ (intermediate affinity …); test: FACS, HH cells; EC50 fold vs T2U0.E44-1
Procedure: as §1

[3] = molecular target: T2, Human IL-2Rα/β/γ complex (high affinity IL-2 receptor) (human, UniProt P01589 22-272; P14784 27-551; P31785 23-369); test: FACS, MJ20 cells; EC50 fold vs T2U0.E44-1
T2 construct: whole, on cells
T2 sequence (looked up) 1: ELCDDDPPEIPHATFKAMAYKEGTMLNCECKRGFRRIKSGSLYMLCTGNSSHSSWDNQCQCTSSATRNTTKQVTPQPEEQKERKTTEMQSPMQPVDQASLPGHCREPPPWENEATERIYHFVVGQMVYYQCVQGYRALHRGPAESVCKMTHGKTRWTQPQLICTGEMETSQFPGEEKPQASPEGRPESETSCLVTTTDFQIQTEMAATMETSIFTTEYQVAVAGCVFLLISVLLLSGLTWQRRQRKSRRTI
T2 sequence (looked up) 2: T1 sequence (looked up) 1
T2 sequence (looked up) 3: T1 sequence (looked up) 2
Procedure: as §1
(§2) Affinity of IL-2 variants to IL-2Rα/β/γ supported the same results (FIG. 8 and Table 7). […] And T2U0.E44-26, T2U0.E44-27, T2U0.E44-29 and T2U0.E44-30 induced hundreds to thousands affinity reduction in Treg compared to T2U0.E44-1. Binding curves in MJ20 cells (IL-2Rα/β/γ) also achieved similar trend (FIG. 8b). As a result, the method of C-terminal truncation and substitution of 129 was available to achieve IL-2Rβγ attenuated IL-2 variants.

[4] = molecular target: T2, Human IL-2Rα/β/γ complex (high affinity …); test: FACS, MJ20 cells
Procedure: as §1, §2

[5] = molecular target: T1, Human IL-2Rβ/γ (intermediate affinity …); test: cell-based or functional assay
[6] = molecular target: T2, Human IL-2Rα/β/γ complex (high affinity …); test: cell-based or functional assay

B2: W3XX115-T2U0.E44-25.uIgG4V1 (Fc fusion)
chain: APTSSSTKKTQLQLEHLLLDLQMILNGINNYKNPKLTRMLTFKFYMPKKATELKHLQCLEEELKPLEEVLNLAQSKNFHLRPRDLISNINVIVLELKGSETTFMCEYADETATIVEFLNRWITFCQSIIKYGPPCPPCPAPEFLGGPSVFLFPPKPKDTLMISRTPEVTCVVVDVSQEDPEVQFNWYVDGVEVHNAKTKPREEQFNSTYRVVSVLTVLHQDWLNGKEYKCKVSNKGLPSSIEKTISKAKGQPREPQVYTLPPCQEEMTKNQVSLWCLVKGFYPSDIAVEWESNGQPENNYKTTPPVLDSDGSFFLYSRLTVDKSRWQEGNVFSCSVMHEALHNHYTQKSLSLSLG
heavy: EIQLQQSGPELVKPGASVKVSCKASGYSFTDYNMYWVKQSHGESLEWIGYIDPYNGGTRYNQKFKGKATLTVDKSSSTAFMHLNSLTSEDSAVYYCARNGHWDGAWFAYWGQGTLVTVSAASTKGPSVFPLAPCSRSTSESTAALGCLVKDYFPEPVTVSWNSGALTSGVHTFPAVLQSSGLYSLSSVVTVPSSSLGTKTYTCNVDHKPSNTKVDKRVESKYGPPCPPCPAPEFLGGPSVFLFPPKPKDTLMISRTPEVTCVVVDVSQEDPEVQFNWYVDGVEVHNAKTKPREEQFNSTYRVVSVLTVLHQDWLNGKEYKCKVSNKGLPSSIEKTISKAKGQPREPQVCTLPPSQEEMTKNQVSLSCAVKGFYPSDIAVEWESNGQPENNYKTTPPVLDSDGSFFLVSRLTVDKSRWQEGNVFSCSVMHEALHNHYTQKSLSLSLG
light: DIQMNQSPSSLSASLGDTITITCHASQNINVWLSWYQQKPGNIPKLLIYKASNLHTGVPSRFSGSRSGTGFTLTISSLQPEDIATYYCHQGQSYPFTFGSGTKLEIKRTVAAPSVFIFPPSDEQLKSGTASVVCLLNNFYPREAKVQWKVDNALQSGNSQESVTEQDSKDSTYSLSSTLTLSKADYEKHKVYACEVTHQGLSSPVTKSFNRGEC
notes: IL-2 del STLT and 2 aa deleted in IgG4 N-terminal hinge; E44 format
- EC50 [1]: 1280 nM
- Affinity reduction [2]: 23.8 fold
- Affinity reduction [3]: 4.5 fold
- EC50 [4]: 63.2 nM
- Potency in human CD8+ T EC50 [5]: 84.9 nM
- Potency reduction (CD8+ T) [5]: 4.2 fold
- Potency in human Treg EC50 [6]: 0.022 nM
- Potency reduction (Treg) [6]: 8.8 fold

B4: W3XX115-T2U0.E44-29.uIgG4V1 (Fc fusion)
chain: APTSSSTKKTQLQLEHLLLDLQMILNGINNYKNPKLTRMLTFKFYMPKKATELKHLQCLEEELKPLEEVLNLAQSKNFHLRPRDLISNINVIVLELKGSETTFMCEYADETATIVEFLNRWITFCQSISESKYGPPCPPCPAPEFLGGPSVFLFPPKPKDTLMISRTPEVTCVVVDVSQEDPEVQFNWYVDGVEVHNAKTKPREEQFNSTYRVVSVLTVLHQDWLNGKEYKCKVSNKGLPSSIEKTISKAKGQPREPQVYTLPPCQEEMTKNQVSLWCLVKGFYPSDIAVEWESNGQPENNYKTTPPVLDSDGSFFLYSRLTVDKSRWQEGNVFSCSVMHEALHNHYTQKSLSLSLG
heavy: B2 heavy
light: B2 light
notes: IL-2 del STLT and I129S; E44 format, IgG4
- EC50 [1]: 1550 nM
- Affinity reduction [2]: 28.8 fold
- Affinity reduction [3]: 17 fold
- EC50 [4]: 233 nM
- Potency in human CD8+ T EC50 [5]: 406 nM
- Potency reduction (CD8+ T) [5]: 20.3 fold
- Potency in human Treg EC50 [6]: 3.76 nM
- Potency reduction (Treg) [6]: 1490 fold

B5: W3XX115-T2U0.E44-28.uIgG4V1 (Fc fusion)
chain: B4 chain with S129A
heavy: B2 heavy
light: B2 light
notes: IL-2 del STLT and I129A; E44 format, IgG4
- EC50 [1]: 839 nM
- Affinity reduction [2]: 15.6 fold
- Affinity reduction [3]: 7.4 fold
- EC50 [4]: 103 nM
- Potency in human CD8+ T EC50 [5]: 446 nM
- Potency reduction (CD8+ T) [5]: 22.3 fold
- Potency in human Treg EC50 [6]: 0.095 nM
- Potency reduction (Treg) [6]: 37.6 fold

B6: W3XX115-T2U0.E44-24.uIgG4V1 (Fc fusion)
chain: APTSSSTKKTQLQLEHLLLDLQMILNGINNYKNPKLTRMLTFKFYMPKKATELKHLQCLEEELKPLEEVLNLAQSKNFHLRPRDLISNINVIVLELKGSETTFMCEYADETATIVEFLNRWITFCQSIISKYGPPCPPCPAPEFLGGPSVFLFPPKPKDTLMISRTPEVTCVVVDVSQEDPEVQFNWYVDGVEVHNAKTKPREEQFNSTYRVVSVLTVLHQDWLNGKEYKCKVSNKGLPSSIEKTISKAKGQPREPQVYTLPPCQEEMTKNQVSLWCLVKGFYPSDIAVEWESNGQPENNYKTTPPVLDSDGSFFLYSRLTVDKSRWQEGNVFSCSVMHEALHNHYTQKSLSLSLG
heavy: B2 heavy
light: B2 light
notes: IL-2 del STLT and 1 aa deleted in IgG4 N-terminal hinge; E44 format
- EC50 [1]: 438 nM
- Affinity reduction [2]: 8.1 fold
- Affinity reduction [3]: 1.3 fold
- EC50 [4]: 18.4 nM
- Potency in human CD8+ T EC50 [5]: 125 nM
- Potency reduction (CD8+ T) [5]: 6.3 fold
- Potency in human Treg EC50 [6]: 0.003 nM
- Potency reduction (Treg) [6]: 1.2 fold

Further binders by falling EC50 [1], results first:

- EC50 [1]: 2740 nM
- Affinity reduction [2]: 51.1 fold
- Affinity reduction [3]: 5.4 fold
- EC50 [4]: 75.3 nM
- Potency in human CD8+ T EC50 [5]: 371 nM
- Potency reduction (CD8+ T) [5]: 18.5 fold
- Potency in human Treg EC50 [6]: 1.85 nM
- Potency reduction (Treg) [6]: 737 fold
B3: W3XX115-T2U0.E44-27.uIgG4V1 (Fc fusion)
chain: B4 chain with S129V
heavy: B2 heavy
light: B2 light
notes: IL-2 del STLT and I129V; E44 format, IgG4

- EC50 [1]: 993 nM
- Affinity reduction [2]: 18.5 fold
- Affinity reduction [3]: 3.1 fold
- EC50 [4]: 42.8 nM
- Potency in human CD8+ T EC50 [5]: 649 nM
- Potency reduction (CD8+ T) [5]: 32.5 fold
- Potency in human Treg EC50 [6]: 1.16 nM
- Potency reduction (Treg) [6]: 460 fold
B1: W3XX115-T2U0.E44-26.uIgG4V1 (Fc fusion)
chain: B4 chain with S129L
heavy: B2 heavy
light: B2 light
notes: IL-2 del STLT and I129L; E44 format, IgG4
